Measured values taken from PMC12706091.

Target: recombinant Flag-DIC1B (rFlag-DIC1B)
Test: pull-down; 2 μg Flag-DIC1B on anti-Flag magnetic beads, 2 μg each of Myc-ANXA7 and TIA1 added; NP40 lysis buffer with 0.5 M L-arginine, 4 °C; with or without 1 mM CaCl2; western blot

B1: recombinant TIA1 (rTIA1) (natural protein)
chain: MEDEMPKTLYVGNLSRDVTEALILQLFSQIGPCKNCKMIMDTAGNDPYCFVEFHEHRHAAAALAAMNGRKIMGKEVKVNWATTPSSQKKDTSSSTVVSTQRSQDHFHVFVGDLSPEITTEDIKAAFAPFGRISDARVVKDMATGKSKGYGFVSFFNKWDAENAIQQMGGQWLGGRQIRTNWATRKPPAPKSTYESNTKQLSYDEVVNQSSPSNCTVYCGGVTSGLTEQLMRQTFSPFGQIMEIRVFPDKGYSFVRFNSHESAAHAIVSVNGTTIEGHVVKCYWGKETLDMINPVQQQNQIGYPQPYGQWGQWYGNAQQIGQYMPNGWQVPAYGMYGQAWNQQGFNQTQSSAPWMGPNYGVQPPQGQNGSMLPNQPSGYRVAGYETQ
- fold change of TIA1 pulled down with DIC1B, with Myc-ANXA7 against without: 4 fold
